Data from the supplement of paper PMC9170038.

Tested on: MS2 coat protein
Assay: apparent KD of MS2 coat protein; higher = weaker reporter binding
Settings: Eterna round: R107
Outline: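 Designed RNA switches were transcribed on-chip from Illumina sequencing clusters and titrated with SNAP-549-labelled MS2 coat protein in twofold steps from 0.7 or 1.5 nM up to 3 µM. Each step lasted 0.8–1.5 h at first and 10–20 min by the end, in 100 mM Tris-HCl pH 7.5, 80 mM KCl and 4 mM MgCl2, without or with constant ligand. Apparent KD is the median, for each design, of fits to normalised cluster binding curves.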

[1] = input ligand: theophylline 20 uM
[2] = input ligand: theophylline 2 mM
[3] = input ligand: tryptophan 2.4 mM

Sequence | apparent KD of MS2 coat protein (input ligand: arginine 13.2 mM) | apparent KD of MS2 coat protein (input ligand: none) | apparent KD of MS2 coat protein [1] | apparent KD of MS2 coat protein [2] | apparent KD of MS2 coat protein [3]
CCUAUGCAGUCGGCCGCCACUGAAAUAAAUUAUAUUACCUCAGAAACAUGAGGAUCACCCAUGUACAGGACCGGGACUGUAUAGG [Ex Tryptophan B 15] | 26 nM | 35.3 nM | 44.2 nM | 26.2 nM | 56.3 nM
CCUAUGCAGUCGGCCGCCACUGAAAUCAAUAAGAUUACCUCAGAAACAUGAGGAUCACCCAUGUACAGGACCGGGACUGUAUAGG [Ex Tryptophan B 16] | 20.6 nM | 40 nM | 41.8 nM | 37.2 nM | 84.3 nM
CCUAUGCAGUCGGCCGCCACUGAACAUGAGGAUCACCCAUGUUUUUAUAAAUAUGGUCCUAUAAUCAGGACCGGGACUGUAUAGG [Ex Tryptophan B 9] | 38.3 nM | 69.2 nM | 59.7 nM | 64.6 nM | 69.2 nM
CCUGGACAUGAGGAUCACCCAUGUGAGGAUACCAGAUAUCCUGAUAUCCCUUGGCAGCCUCAUUACUUCGCAUUACCGAAACUUC [theeternabot_sameState_MS2_Theo_A_35] | 31.1 nM | – | 166 nM | – | 57.1 nM
CGAAAGCACAUGGGUUGCUUUCGACUGGAAGGAGCGAGCGAAAGCUCAGGUAGGUCGCCAGAAACAUGAGGAUCACCCAUGUAAU [(A)''-(M)'-(A)'(Arg1)-(Arg2)-(M1)-(M2)_Design10] | 21.6 nM | 18.3 nM | 27.4 nM | 21.3 nM | 22.4 nM
CGAUCUUUCGAAAGAAGGAUCGAGUCUGAUACCAGAGACGAAAGUCUCCCUUGGCAGCAGUGCCAACAUGAGGAUCACCCAUGUA [Theophylline A 9] | 20.7 nM | – | 26.3 nM | – | 18.9 nM
CGAUCUUUCGAAAGAAGGAUCGAUUCUGAUACCAGAGACGAAAGUCUCCCUUGGCAGCAGUGCCAACAUGAGGAUCACCCAUGUA [Theophylline A 8] | 26.4 nM | – | 26 nM | – | 23.6 nM
CGCAACAUGAGGAUCACCCAUGUAAUGACGCGAGGACCGGUACGGCCGCCACUCGCCUGGCAGUGAGCGCAUGCGGCCUGGGUAU [Exclusion Tryp A GF8] | 10.6 nM | – | 16.5 nM | 14.3 nM | –
CGCCACAUGAGGAUCACCCAUGUCUUGGCGCGAGGACCGGUACGGCCGCCACUCGCGUUUCAGUGAGCGCAUGCGUCCUUGGUAU [Exclusion Tryp A GF10] | 16.8 nM | – | 27 nM | 20.3 nM | –
CGCGGGCCACAUGAGGAUCACCCAUGUGAAGGAGCGGCGAAUAAGCCAGGUAGGUCGCGCAUGAAUAAAUCAUGUAGGUGGCGAA [XArg-A 10 V1&2] | 16.4 nM | – | 22.8 nM | 21.6 nM | 20.2 nM
CGGUCGGUCGGCCGGUGAUUAUGGGAUGAAGGAGCGUGGGAAGCUACAGGUAGGUCGCAUCCGAAACACGAGGAUCACCCGUGUU [SSArg A #25Alt-Ms2 Mod] | 26.5 nM | 24.3 nM | 38.3 nM | 37.4 nM | 28.4 nM
CGGUCGGUCGGUCGGUGAUUAUGGGAUGAAGGAGCGUGGGAAGCUACAGGUAGGUCGCAUCCGAAACAUGAGGAUCACCCAUGUU [#21 Same State - Arginine A] | 24.6 nM | 21 nM | 26.8 nM | 21.3 nM | 18.5 nM
CGGUUUGUGAUGGAUACCAGCAGAGUGAAUGUUUAUCCUGACAUGAGGAUCACCCAUGUGUGCCCUUGGCAGCUGUUGUGGGCUG [8.Z] | 54.4 nM | – | 100 nM | – | 63.7 nM
CGUAUUACGAAAGUAGUACGUAGUGUUCGACGAGGACCGGUACGGCCGCCACUCGGACAUGAGGAUCACCCAUGUAGCGAAAGCU [Tryptophan A 24] | 46.1 nM | 255 nM | 301 nM | 247 nM | 28.3 nM
